# Experimental data from patent US8357523B2, “Beta-glucosidase variant enzymes and related polynucleotides” (Codexis, Inc., priority 2009, dated 2013).
# Assay: High throughput cellobiose assay: fold improvement in cellobiase activity of CelA variants over a control enzyme (Tables 2A-2D, 3, 5, 6, 7)
# Type: biochemical
# Settings: 3.3 g/l cellobiose, 55° C. and pH 6.0
row,Molecule,Fold improvement over Control Variant No. 5 from Table 2A
1,205 (protein) STAIAQEGAAPAAILHPEKWPRPATQRLIDPAVEKRVDALLKQLSVEEKVGQVIQGDIGTITPEDLRKYPLGSILAGGDSGPNGDDRAPPKEWLDLADAFYRVSLEKRPGHTPIPVLFGIDAVHGHGNIGSATIFPHNIALGMTRDPELLRRIGEVTAEEMAATGIDWTFAPALSVVRDDRWGRTYEGFSEDPEIVASYSAAIVEGVQGKFGSKDFMAPGRIVASAKHFLADGGTDQGRDQGDARISEDELIRIHNAGYPPAIDAGVLTVMASFSSWQGIKHHGHKQLLTDVLKGQMGFNGFIVGDWNAHDQVPGCTKFNCPTSLIAGLDMYMAADSWKQLYENTLAQVKDGTIPMARLDDAVRRILRVKVLAGLFEKPAPKDRPGLPGLETLGSPEHRAVGREAVRKSLVLLKNDKGTLPLSPKARVLVAGDGADNIGKQSGGWTISWQGTGNRNDEFPGATSILGGIRDAVADAGGAVEFDVAGQYKTKPDVAIVVFGEEPYAEFQGDVETLEYQPDQKQDLALLKKLKDQGIPVVAVFLSGRPMWVNPELNASDAFVAAWLPGTEGGGVADVLFTDKAGKVQHDFAGKLSYSWPRTAAQTTVNRGDADYNPLFAYGYGLTYKDKSKVGTLPEESGVPAEARQNAGIYFRAGALRLPGRFL,++ (++ = 1.1 to 6 fold improvement over control Variant No. 2)
2,206 (protein) STAIAQEGAAPAAILHPEKWPRPATQRLIDPAVEKRVDALLKQLSVEEKVGQVIQGDIGTITPEDLRKYPLGSILAGGDSGPNGDDRAPPKEWLDLADAFYRVSLEKRPGHTPIPVLFGIDAVHGHGNIGSATIFPHNIALGMTRDPELLRRIGEVTAEEMAATGIDWTFAPALSVVRDDRWGRTYEGFSEDPEIVASYSAAIVEGVQGKFGPKDFMAPGRIVASAKHFLADGGTDQGRDQGDARISEDELIRIHNAGYPPAIDAGVLTVMASFSSWQGIKHHGHKQLLTDVLKGQMGFNGFIVGDWNAHDQVPGCTKFNCPTSLIAGLDMYMAADSWKQLYENTLAQVKDGTIPMARLDDAVRRILRVKVLAGLFEKPAPKDRPGLPGLETLGSPEHRAVGREAVRKSLVLLKNDKGTLPLSPKARVLVAGDGADNIGKQSGGWTISWQGTGNRNDEFPGATSILGGIRDAVADAGGSVEFDVAGQYKTKPDVAIVVFGEEPYAEFQGDVETLEYQPDQKQDLALLKKLKDQGIPVVAVFLSGRPMWVNPELNASDAFVAAWLPGTEGGGVADVLFTDKAGKVQHDFAGKLSYSWPRTAAQTTVNRGDADYNPLFAYGYGLTYKDKSKVGTLPEESGVPAEARQNAGIYFRAGALRLPGRFL,++ (++ = 1.1 to 6 fold improvement over control Variant No. 2)
3,86 (protein) STAIAQEGAAPAAILHPEKWPRPATQRLIDPAVEKRVDALLKQLSVEEKVGQVIQGDIGTITPEDLRKYPLGSILAGGNSGPNGDDRAPPKEWLDLADAFYRVSLEKRPGHTPIPVLFGIDAVHGHGNIGSATIFPHNIALGMTRDPELLRRIGEVTAVEMAATGIDWTFAPALSVVRDDRWGRTYEGFSEDPEIVASYSAAIVEGVQGKFGSKDFMAMGRIVASAKHFLADGGTDQGRDQGDARISEDELIRIHNAGYPPAIDAGVLTVMASFSSWQGIKHHGHKQLLTDVLKGQMGFNGFIVGDWNAHDQVPGCTKFNCPTSLIAGLDMYMAADSWKQLYENTLAQVKDGTIPMARLDDAVRRILRVKVLAGLFEKPAPKDRPGLPGLETLGSPEHRAVGREAVRKSLVLLKNDKGTLPLSPKARVLVAGDGADNIGKQSGGWTISWQGTGNRNDEFPGATSILGGIRDAVADAGGSVEFDVAGQYKTKPDVAIVVFGEEPYAEFQGDVETLEYQPDQKQDLALLKKLKDQGIPVVAVFLSGRPMWVNPELNASDAFVAAWLPGTEGGGVADVLFTDKAGKVQHDFAGKLSYSWPRTAAQTTVNRGDADYNPLFAYGYGLTYKDKSKVGTLPEESGVPAEARQNAGIYFRAGALRLPGRFL,++ (++ = 1.1 to 6 fold improvement over control Variant No. 2)
4,207 (protein) STAIAQEGAAPAAILHPEKWPRPATQRLIDPAVEKRVDALLKQLSVEEKVGQVIQGDIGTITPEDLRKYPLGSILAGGDSGPNGDDRAPPKEWLDLADAFYRVSLEKRPGHTPIPVLFGIDAVHGHGNIGSATIFPHNIALGMTRDPELLRRIGEVTAEEMAATGIDWTFAPALSVVRDDRWGRTYEGFSEDPEIVASYSAAIVEGVQGKFGSKDFMAPGRIVASAKHFLADGGTDQGRDQGDARISEDELIRIHNAGYPPAIDAGVLTVMASFSSWQGIKHHGHKQLLTDVLKGQMGFNGFIVGDWNAHDQVPGCTKFNCPTSLIAGLDMYMAADSWKQLYENTLAQVKDGTIPMARLDDAVRRILRVKVLAGLFEKPAPKDRPGLPGLETLGSPEHRAVGREAVRKSLVLLKNDKGTLPLSPKARVLVAGDGADNIGKQSGGWTISWQGTGNRNDEFPGATSILGGIRDAVADAGGSVEFDVAGQYKTKPDVAIVVFGEEPYAEFQGDVETLEYQPDQKQDLALLKKLKDQGIPVVAVFLSGRPMWVNPELNASDAFVAAWLPGTEGGGVADVLFTDKAGKVQHDFAGKLSYSWPRTAAQTPVNRGDADYNPLFAYGYGLTYKDKSKVGTLPEESGVPAEARQNAGIYFRAGALRLPGRFL,++ (++ = 1.1 to 6 fold improvement over control Variant No. 2)
5,84 (protein) STAIAQEGAAPAAILHPEKWPRPATQRLIDPAVEKRVDALLKQLSVEEKVGQVIQGDIGTITPEDLRKYPLGSILAGGNSGPNGDDRAPPKEWLDLADAFYRVSLEKRPGHTPIPVLFGIDAVHGHGKIGSATIFPHNIALGATRDPELLRRIGEVTAVEMAATGIDWTFAPALSVVRDDRWGRTYEGFSEDPEIVAAYSAAIVEGVQGKFGSKDFMAPGRAVASAKHFLADGGTDQGRDQGDARISEDELIRIHNAGYPPAIDAGVLTVMASFSSWQGIKHHGHKQLLTDVLKGQMGFNGFIVGDWNAHDQVPGCTKFNCPTSLIAGLDMYMAADSWKQLYENTLAQVKDGTIPMARLDDAVRRILRVKVLAGLFEKPAPKDRPGLPGLETLGSPEHRAVGREAVRKSLVLLKNDKGTLPLSPKARVLVAGDGADNIGKQSGGWTISWQGTGNRNDEFPGATSILGGIRDAVADAGGSVEFDVAGQYKTKPDVAIVVFGEEPYAEFQGDVETLEYQPDQKQDLALLKKLKDQGIPVVAVFLSGRPMWVNPELNASDAFVAAWLPGTEGGGVADVLFTDKAGKVQHDFAGKLSYSWPRTAAQTTVNRGDADYNPLFAYGYGLTYKDKSKVGTLPEESGVPAEARQNAGIYFRAGALRLPGRFL,+++ (+++ = 6 to 13 fold improvement over control Variant No. 2)
6,209 (protein) STAIAQEGAAPAAILHPEKWPRPATQRLIDPAVEKRVDALLKQLSVEEKVGQVIQGDIGTITPEDLRKYPLGSILAGGDSGPNGDDRAPPKEWLDLADAFYRVSLEKRPGHTPIPVLFGIDAVHGHGNIGSATIFPHNIALGMTRDPELLRRIGEVTAEEMAATGIDWTFAPALSVVRDDRWGRTYEGFSEDPEIVASYSAAIVEGVQGKFGSKDFMAPGRIVASAKHFLADGGTDQGRDQGDARISEDELIRIHNAGYPPAIDAGVLTVMASFSSWQGIKHHGHKQLLTDVLKGQMGFNGFIVGDWNAHDQVPGCTKFNCPTSLIAGLDLYMAADSWKQLYENTLAQVKDGTIPMARLDDAVRRILRVKVLAGLFEKPAPKDRPGLPGLETLGSPEHRAVGREAVRKSLVLLKNDKGTLPLSPKARVLVAGDGADNIGKQSGGWTISWQGTGNRNDEFPGATSILGGIRDAVADAGGSVEFDVPGQYKTKPDVAIVVFGEEPYAEFQGDVETLEYQPDQKQDLALLKKLKDQGIPVVAVFLSGRPMWVNPELNASDAFVAAWLPGTEGGGVADVLFTDKAGKVQHDFAGKLSYSWPRTAAQTTVNRGDADYNPLFAYGYGLTYKDKSKVGTLPEESGVPAEARQNAGIYFRAGALRLPGRFL,++ (++ = 1.1 to 6 fold improvement over control Variant No. 2)
7,208 (protein) STAIAQEGAAPAAILHPEKWPRPATQRLIDPAVEKRVDALLKQLSVEEKVGQVIQGDIRTITPEDLRKYPLGSILAGGDSGPNGDDRAPPKEWLDLADAFYRVSLEKRPGHTPIPVLFGIDAVHGHGNIGSATIFPHNIALGMTRDPELLRRIGEVTAEEMAATGIDWTFAPALSVVRDDRWGRTYEGFSEDPEIVASYSAAIVEGVQGKFGSKDFMAPGRIVASAKHFLADGGTDQGRDQGDARISEDELIRIHNAGYPPAIDAGVLTVMASFSSWQGIKHHGHKQLLTDVLKGQMGFNGFIVGDWNAHDQVPGCTKFNCPTSLIAGLDMYMAADSWKQLYENTLAQVKDGTIPMARLDDAVRRILRVKVLAGLFEKPAPKDRPGLPGLETLGSPEHRAVGREAVRKSLVLLKNDKGTLPLSPKARVLVAGDGADNIGKQSGGWTISWQGTGNRNDEFPGATSILGGIRDAVADAGGSVEFDVAGQYKTKPDVAIVVFGEEPYAEFQGDVETLEYQPDQKQDLALLKKLKDQGIPVVAVFLSGRPMWVNPELNASDAFVAAWLPGTEGGGVADVLFTDKAGKVQHDFAGKLSYSWPRTAAQTTVNRGDADYNPLFAYGYGLTYKDKSKVGTLPEESGVPAEARQNAGIYFRAGALRLPGRFL,++ (++ = 1.1 to 6 fold improvement over control Variant No. 2)
8,85 (protein) STAIAQEGAAPAAILHPEKWPRPATQRLIDPAVEKRVDALLKQLSVEEKVGQVIQGDIGTITPEDLRKYPLGSILAGGDSGPNGNDRAPPKEWLDLADAFYRVSLEKRPGHTPIPVLFGIDAVHGHGNIGSATIFPHNIALGATRDPELLRRIGEVTAVEMAATGIDWTFAPALSVVRDDRWGRTYEGFSEDPEIVAAYSAAIVEGVQGKYGSKDFMAPGRIVASAKHFLADGGTDQGRDQGDARISEDELIRIHNAGYPPAIDAGVLTVMASFSSWQGIKHHGHKQLLTDVLKGQMGFNGFIVGDWNAHDQVPGCTKFNCPTSLIAGLDMYMAADSWKQLYENTLAQVKDGTIPMARLDDAVRRILRVKVLAGLFEKPAPKDRPGLPGLETLGSPEHRAVGREAVRKSLVLLKNDKGTLPLSPKARVLVAGDGADNIGKQSGGWTISWQGTGNRNDEFPGATSILGGIRDAVADAGGSVEFDVAGQYKTKPDVAIVVFGEEPYAEFQGDVETLEYQPDQKQDLALLKKLKDQGIPVVAVFLSGRPMWVNPELNASDAFVAAWLPGTEGGGVADVLFTDKAGKVQHDFAGKLSYSWPRTAAQTTVNRGDADYNPLFAYGYGLTYKDKSKVGTLPEESGVPAEARQNAGIYFRAGALRLPGRFL,++ (++ = 1.1 to 6 fold improvement over control Variant No. 2)
